Here are results for 4 molecules from patent US11001824 (UNIVERSITY OF GEORGIA RESEARCH FOUNDATION, dated 2021).

As usually defined, the koff is the first-order rate constant of dissociation. A low value points to slow dissociation. For orientation: Kd means the equilibrium constant for the complex coming apart. A low value points to higher affinity.

Experiment [1] addresses T1, denatured bovine pancreatic Ribonuclease B (bovine, UniProt P61823 27-150).
T1 construct: mature; also called dRNase B; denatured RNase B
T1 sequence: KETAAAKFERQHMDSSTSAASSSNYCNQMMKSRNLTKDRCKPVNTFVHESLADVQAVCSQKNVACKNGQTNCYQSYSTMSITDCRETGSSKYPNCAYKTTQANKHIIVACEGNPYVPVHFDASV
The experiment in a line: experimental binding free energy from SPR with dRNase B, relative to D60A.

Experiment [2] has as its target T1, denatured bovine pancreatic …. Briefly: SPR (Biacore 3000), dRNase B immobilised on CM5. A general note: SPR reads the build-up and loss of mass on a sensor chip optically.
Experiment [3] shares this target. Briefly: SPR (Biacore 3000), dRNase B immobilised on CM5, steady state.
Protocol: A high-density surface was prepared with sufficient ligand coupling to yield a theoretical $RMAX$ of ~3000 RU. To assess the impact of the D60C mutation in R911 relative to wtPNGase F, the R911 C60A mutant was also evaluated. Steady-state binding kinetics using a bimolecular interaction model was determined using a Biacore 3000 instrument.
(§1) Using a similar strategy, denatured RNase B was immobilized on a CM-5 sensor chip and serially-diluted concentrations of wtPNGase F, D60A, R911, and R911 C60A were passed over the sensor surface, while binding kinetics were measured.
Dissociation (K_D) and off-rate constants ($koff$) for the interaction between denatured glycoprotein RNase B (dRNase B) with PNGase F mutagenized clones as determined by surface plasmon resonance.
Experiment [4] shares this target. Briefly: SPR (Biacore 3000), dRNase B immobilised on CM5; calculated from KD.
Protocol: Steady-state binding kinetics using a bimolecular interaction model was determined using a Biacore 3000 instrument.
as §1
Dissociation (K_D) and off-rate constants ($koff$) for the interaction between denatured glycoprotein RNase B (dRNase B) with PNGase F mutagenized clones as determined by surface plasmon resonance. Kinetic data s as determined with dRNase B as immobilized ligand on CM5 sensor chip and PNGase F clone analytes.
For experiment [5] the target is unchanged. Briefly: experimental binding free energy from SPR with denatured RNase B.
Experiment [6] concerns the target T2, Histone H2A type 1-B/E (human).
T2 construct: From MCF7 cell extract; also called H2A1B
Briefly: R911 affinity column, MCF7 cell extract, chitobiose elution, LC-MS/MS.
Protocol: (§2) Cell extract (100 µg) was loaded onto a R911 affinity column and then competitively eluted with free chitobiose in the binding buffer, instead of the standard elution buffer (FIG. 37).
(§3) Human breast cancer MCF7 cells were cultured in DMEM media supplemented with 10% fetal bovine serum. Cells were passaged and harvested using trypsin-free cell release. Approximately, 2.3 ×10^7 cells were harvested and washed 3× with 10 mL of phosphate buffered saline at 4° C. by centrifugation at 1000×g for 5 minutes. The cell pellet was resuspended in 1.5 mL of filter sterilized cell lysis buffer (10 mM Tris-HCl, pH 7.5, 150 mM NaCl, 1% v/v Nonidet P-40) with EDTA-free protease inhibitor cocktail (Roche Diagnostics, Mannheim, Germany) and incubated on ice for 30 minutes.[17] The cells were ultra-sonicated (Misonix Ultrasonic Liquid Processor Model S-4000) at intervals of 15 seconds for a total of 2 minutes, with a 15 second pause between treatments (30% amplitude). […] The supernatant containing the MCF7 cell extract was stored at −80° C. in 50 µL aliquots. […] An aliquoted MCF7 cell extract stock was thawed on ice and diluted to 1 mg/mL using 10 mM HEPES, 10 mM NaCl, at pH 7.4.
(§4) LC-MS/MS Protein Identification of R911 Lectenz® Affinity Chromatography Eluted Samples MCF7 cell extract and proteins eluted from the R911 Lectenz® affinity column were reduced, alkylated and digested with sequence grade trypsin (Promega) using a standard in-solution digest protocol.[30] The samples were acidified with 1% trifluroacetic acid and desalting was performed using C18 spin columns (Silica C18, The Nest Group, Inc.).

The target in experiment [7] is T3, Histone H2A type 2-C (human).
T3 construct: From MCF7 cell extract; also called H2A2C
Described as above.
Protocol: as §2, §3, §4

For experiment [8], the target named is T4, Histone H2A.x (human, UniProt P16104 2-143).
T4 construct: From MCF7 cell extract
Described as above.
Protocol: as §2, §3, §4

Experiment [9] concerns the target T5, Histone H2A.Z (human).
T5 construct: From MCF7 cell extract
Described as above.
Protocol: as §2, §3, §4

The target in experiment [10] is T6, RNase B deglycosylated with PNGase F (bovine, UniProt P61823 27-150).
T6 construct: mature; also called deglycosylated RNase B
T6 sequence: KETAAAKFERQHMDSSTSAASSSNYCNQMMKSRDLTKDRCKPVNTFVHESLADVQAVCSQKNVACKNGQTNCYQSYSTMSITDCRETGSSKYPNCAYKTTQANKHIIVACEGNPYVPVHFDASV
Briefly: R911 affinity chromatography.

T5 sequence (chain, as listed by the source limits assumed): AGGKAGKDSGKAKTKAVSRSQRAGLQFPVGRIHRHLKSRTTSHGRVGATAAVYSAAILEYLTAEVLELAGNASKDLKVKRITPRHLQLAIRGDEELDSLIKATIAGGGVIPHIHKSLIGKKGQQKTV

B1: wild-type PNGase F from Flavobacterium meningosepticum (enzyme)
chain: GIPAPADNTVNIKTFDKVKNAFGDGLSQSAEGTFTFPADVTAVKTIKMFIKNECPNKTCDEWDRYANVYVKNKTTGEWYEIGRFITPYWVGTEKLPRGLEIDVTDFKSLLSGNTELKIYTETWLAKGREYSVDFDIVYGTPDYKYSAVVPVVQYNKSSIDGVPYGKAHTLALKKNIQLPTNTEKAYLRTTISGWGHAKPYDAGSRGCAEWCFRTHTIAINNSNTFQHQLGALGCSANPINNQSPGNWTPDRAGWCPGMAVPTRIDVLNNSLIGSTFSYEYKFQNWTNNGTNGDAFYAISSFVIAKSNTPISAPVVTNLDPHHHHHH
notes: also called wtPNGase F; 1PNF
For the molecule B1, the “ΔΔGBIND-EXP (relative to D60A)” value in experiment [1] was found to be 0.5 kcal/mol. The molecule further displayed a koff in experiment [2] of 0.01 s⁻¹. Also, binding in experiment [3] was put at a Kd of 6400 nM. Also, the ΔGBIND-EXP in experiment [4] is -7.1 kcal/mol.

B2: PNGase F clone R911 (D57L, D60C, I156L, G192I, E206S, R248W) (designed binder)
chain: GIPAPADNTVNIKTFDKVKNAFGDGLSQSAEGTFTFPADVTAVKTIKMFIKNECPNKTCLEWCRYANVYVKNKTTGEWYEIGRFITPYWVGTEKLPRGLEIDVTDFKSLLSGNTELKIYTETWLAKGREYSVDFDIVYGTPDYKYSAVVPVVQYNKSSLDGVPYGKAHTLALKKNIQLPTNTEKAYLRTTISGWIHAKPYDAGSRGCASWCFRTHTIAINNSNTFQHQLGALGCSANPINNQSPGNWTPDWAGWCPGMAVPTRIDVLNNSLIGSTFSYEYKFQNWTNNGTNGDAFYAISSFVIAKSNTPISAPVVTNLDPHHHHHH
As for B2, the “ΔΔGBIND-EXP (relative to R911 C60A)” value in [5] is -1.2 kcal/mol. Also, the “ΔΔGBIND-EXP (relative to D60A)” value in [1] is -1.9 kcal/mol. In addition, the binding result in experiment [6] is given as “binds”; in experiment [7], “binds”; in experiment [8] it was “binds”; in [9], “binds”; in experiment [10], “no binding”. In addition, the “Relative Affinity Enhancement (against D60A)” value (shortened to “Relative Affinity Enhancement”) in experiment [2] came to 10 fold. The “Relative Off-Rate Enhancement (against D60A)” value (“Relative Off-Rate Enhancement” for short) in experiment [2] stood at 84 fold. Besides, the koff in [2] was determined as 0.0051 s⁻¹. This molecule also had a dissociation constant (Kd) in experiment [3] of 260 nM. For the same molecule, the ΔGBIND-EXP in experiment [4] is -8.99 kcal/mol.

B3: PNGase F D60A single point mutant (enzyme)
chain: GIPAPADNTVNIKTFDKVKNAFGDGLSQSAEGTFTFPADVTAVKTIKMFIKNECPNKTCDEWARYANVYVKNKTTGEWYEIGRFITPYWVGTEKLPRGLEIDVTDFKSLLSGNTELKIYTETWLAKGREYSVDFDIVYGTPDYKYSAVVPVVQYNKSSIDGVPYGKAHTLALKKNIQLPTNTEKAYLRTTISGWGHAKPYDAGSRGCAEWCFRTHTIAINNSNTFQHQLGALGCSANPINNQSPGNWTPDRAGWCPGMAVPTRIDVLNNSLIGSTFSYEYKFQNWTNNGTNGDAFYAISSFVIAKSNTPISAPVVTNLDPHHHHHH
notes: also called D60A control clone
With B3, in experiment [2], the “Relative Affinity Enhancement” value is 1 fold, the “Relative Off-Rate Enhancement” value stood at 1 fold and the koff is 0.43 s⁻¹. The equilibrium dissociation constant (Kd) in experiment [3] came to 2700 nM. Besides, the ΔGBIND-EXP in experiment [4] is -7.61 kcal/mol.

B4: PNGase F clone R911 C60A (D57L, D60A, I156L, G192I, E206S, R248W) (designed binder)
chain: GIPAPADNTVNIKTFDKVKNAFGDGLSQSAEGTFTFPADVTAVKTIKMFIKNECPNKTCLEWARYANVYVKNKTTGEWYEIGRFITPYWVGTEKLPRGLEIDVTDFKSLLSGNTELKIYTETWLAKGREYSVDFDIVYGTPDYKYSAVVPVVQYNKSSLDGVPYGKAHTLALKKNIQLPTNTEKAYLRTTISGWIHAKPYDAGSRGCASWCFRTHTIAINNSNTFQHQLGALGCSANPINNQSPGNWTPDWAGWCPGMAVPTRIDVLNNSLIGSTFSYEYKFQNWTNNGTNGDAFYAISSFVIAKSNTPISAPVVTNLDPHHHHHH
B4: the “ΔΔGBIND-EXP (relative to D60A)” value in experiment [1] is -0.7 kcal/mol. For the same molecule, in experiment [2], the “Relative Affinity Enhancement” value is 1.3 fold, the “Relative Off-Rate Enhancement” value was found to be 35 fold and the koff worked out at 0.012 s⁻¹. In experiment [3], this molecule gave a dissociation constant Kd of 2000 nM. Further, in experiment [4], the ΔGBIND-EXP was -7.77 kcal/mol.
